Assay results taken from US20190270826A1 (Janssen / Centocor, published 2019).
Positions count from the first letter of the chain named.

B1: IAPB09 (antibody, human IgG4 S228P, kappa, F234A L235A, V domains shown)
VH: QVQLVQSGAEVKKPGSSVKVSCKASGGTFSSYAISWVRQAPGQGLEWMGWISPIFGTANYAQKFQGRVTITADESTSTAYMELSSLRSEDTAVYYCARRYDNFARSGDLDYWGQGTLVTVSS
VL: not shown
notes: IgG4-PAA; whole chains; also called IAPB9
B2: IAPB17 (antibody, human IgG4 S228P, kappa, F234A L235A, V domains shown)
VH: QVQLVQSGAEVKKPGSSVKVSCKASGGTFSSYAISWVRQAPGQGLEWMGGIIPIFGNANYAQKFQGRVTITADESTSTAYMELSSLRSEDTAVYYCARTIIYLDYVHILDYWGQGTLVTVSS
VL: not shown
notes: IgG4-PAA; whole chains
B3: IAPB47 (antibody, human IgG4 S228P, kappa, F234A L235A, V domains shown)
VH: EVQLVQSGAEVKKPGESLKISCKGSGYSFTSYWIGWVRQMPGKGLEWMGIIYPSDSYTRYSPSFQGQVTISADKSISTAYLQWSSLKASDTAMYYCARRNSAENYADLDYWGQGTLVTVSS
VL: EIVLTQSPGTLSLSPGERATLSCRASQSISNDLNWYQQKPGKAPKLLIYYASSLQSGVPSRFSGSGSGTDFTLTINSLQPEDFATYYCQQSFTAPLTFGQGTKVEIKR
notes: IgG4-PAA; whole chains
B4: IAPB57 (antibody, human IgG4 S228P, kappa, F234A L235A)
heavy: not shown
light: DIQLTQSPSFLSASVGDRVTITCRASQGISSYLAWYQQKPGKAPKLLIYAASTLQSGVPSRFSGSGSGTEFTLTISSLQPEDFATYYCQQVNSYPLTFGGGTKVEIKRTVAAPSVFIFPPSDEQLKSGTASVVCLLNNFYPREAKVQWKVDNALQSGNSQESVTEQDSKDSTYSLSSTLTLSKADYEKHKVYACEVTHQGLSSPVTKSFNRGEC
notes: IgG4-PAA; whole chains
B5: CD3B219 - CD3B219 Parental, IgG4 PAA (antibody)
heavy chain: EVQLVESGGGLVQPGGSLRLSCAASGFTFNTYAMNWVRQAPGKGLEWVARIRSKYNNYATYYAASVKGRFTISRDDSKNSLYLQMNSLKTEDTAVYYCARHGNFGNSYVSWFAYWGQGTLVTVSSASTKGPSVFPLAPCSRSTSESTAALGCLVKDYFPEPVTVSWNSGALTSGVHTFPAVLQSSGLYSLSSVVTVPSSSLGTKTYTCNVDHKPSNTKVDKRVESKYGPPCPPCPAPEAAGGPSVFLFPPKPKDTLMISRTPEVTCVVVDVSQEDPEVQFNWYVDGVEVHNAKTKPREEQFNSTYRVVSVLTVLHQDWLNGKEYKCKVSNKGLPSSIEKTISKAKGQPREPQVYTLPPSQEEMTKNQVSLTCLVKGFYPSDIAVEWESNGQPENNYKTTPPVLDSDGSFLLYSKLTVDKSRWQEGNVFSCSVMHEALHNHYTQKSLSLSLGK
light chain: QTVVTQEPSLTVSPGGTVTLTCRSSTGAVTTSNYANWVQQKPGQAPRGLIGGTNKRAPGTPARFSGSLLGGKAALTLSGVQPEDEAEYYCALWYSNLWVFGGGTKLTVLGQPKAAPSVTLFPPSSEELQANKATLVCLISDFYPGAVTVAWKADSSPVKAGVETTTPSKQSNNKYAASSYLSLTPEQWKSHRSYSCQVTHEGSTVEKTVAPTECS

target: T1, recombinant human IL1RAP ECD (human, UniProt Q9NPH3 21-367); test: SPR, summary
T1 construct: His-tagged; also called hIL1RAP-ECD; rhuIL1RAP
T1 sequence: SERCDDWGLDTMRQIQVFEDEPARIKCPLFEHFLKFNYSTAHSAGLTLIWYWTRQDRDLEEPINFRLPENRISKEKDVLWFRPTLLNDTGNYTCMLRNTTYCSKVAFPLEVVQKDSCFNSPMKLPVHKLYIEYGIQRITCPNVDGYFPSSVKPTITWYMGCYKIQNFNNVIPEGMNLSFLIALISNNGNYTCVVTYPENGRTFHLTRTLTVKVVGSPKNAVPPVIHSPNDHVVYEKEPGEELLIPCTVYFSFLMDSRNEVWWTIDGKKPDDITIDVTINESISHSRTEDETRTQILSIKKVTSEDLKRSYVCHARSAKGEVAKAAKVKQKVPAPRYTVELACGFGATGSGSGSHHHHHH

| Binder | Kd [nM] |
| --- | --- |
| B1 | 6.59 |
| B2 | 8.51 |
| B3 | 1.24 |
| B4 | 0.16 |

target: T1, recombinant human IL1RAP ECD; test: SPR (ProteOn)
Procedure: The rates of IL1RAP ECD association and dissociation were measured for each variant. The biosensor surface was prepared by covalently coupling Goat anti-Human IgG (Fc) to the surface of a GLC chip (BioRad) using the manufacturer instructions for amine-coupling chemistry. […] The RU immobilized also included a goat anti-mouse Fc antibody that was added to capture other antibodies not included in the ones reported here. Since the mixture was 1:1 about 50% of these RU immobilized are expected to be goat anti-human Fc. The kinetic experiments were performed at 25° C. in running buffer (PBS pH 7.4, 0.005% P20, 3 mM EDTA). […] (1:3) serial dilutions of human IL1RAP ECD, starting at 400 nM were prepared in running buffer. […] The reference spots (Goat anti-Human IgG (Fc)-modified surface) containing no candidate captured were used as a reference surface. Capture of mAb was followed by a 3 minute injection (association phase) of antigen at 40 μL/min, followed by 10 minutes of buffer flow (dissociation phase). […] Data was processed on the instrument software. Double reference subtraction of the data was performed by subtracting the curves generated by buffer injection from the reference-subtracted curves for analyte injections. Kinetic analysis of the data was performed using 1:1 Langmuir binding model with group fit.

| Binder | Kd [nM] | koff [s⁻¹] | kon [M⁻¹ s⁻¹] |
| --- | --- | --- | --- |
| B1 | 6.59 | 0.00379 | 574000 |
| B2 | 8.51 | 0.00719 | 844000 |
| B3 | 1.24 | 0.000811 | 653000 |

target: T2, recombinant cyno IL1RAP ECD (cynomolgus monkey, UniProt P59822 21-367 (rhesus entry)); test: recombinant protein
T2 construct: also called rcynoIL1RAP
T2 sequence: T1 sequence with L183F, T273P, K326T

| Binder | binding result |
| --- | --- |
| B1 | binds |
| B2 | binds |
| B3 | binds |
| B4 | binds |

target: T3, cyno IL1RAP ECD displayed on HEK-293F cells (pDisplay) (cynomolgus monkey, UniProt P59822 21-367 (rhesus entry)); test: HEK-293F cells (MSD)
T3 sequence: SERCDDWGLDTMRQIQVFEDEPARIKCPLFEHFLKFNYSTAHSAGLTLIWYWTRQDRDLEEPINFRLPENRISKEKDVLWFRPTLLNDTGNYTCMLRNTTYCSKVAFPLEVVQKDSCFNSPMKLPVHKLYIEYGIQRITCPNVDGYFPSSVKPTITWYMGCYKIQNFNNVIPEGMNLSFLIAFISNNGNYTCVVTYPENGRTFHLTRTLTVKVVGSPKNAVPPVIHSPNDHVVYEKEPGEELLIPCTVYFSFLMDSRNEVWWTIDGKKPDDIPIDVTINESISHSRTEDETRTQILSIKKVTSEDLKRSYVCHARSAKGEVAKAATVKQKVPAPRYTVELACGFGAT

| Binder | binding result |
| --- | --- |
| B1 | binds |
| B2 | binds |
| B3 | binds |
| B4 | binds |

target: T4, mouse IL1RAP ECD displayed on HEK-293F cells (pDisplay) (mouse, UniProt Q61730 21-367); test: HEK-293F cells (MSD)
T4 sequence: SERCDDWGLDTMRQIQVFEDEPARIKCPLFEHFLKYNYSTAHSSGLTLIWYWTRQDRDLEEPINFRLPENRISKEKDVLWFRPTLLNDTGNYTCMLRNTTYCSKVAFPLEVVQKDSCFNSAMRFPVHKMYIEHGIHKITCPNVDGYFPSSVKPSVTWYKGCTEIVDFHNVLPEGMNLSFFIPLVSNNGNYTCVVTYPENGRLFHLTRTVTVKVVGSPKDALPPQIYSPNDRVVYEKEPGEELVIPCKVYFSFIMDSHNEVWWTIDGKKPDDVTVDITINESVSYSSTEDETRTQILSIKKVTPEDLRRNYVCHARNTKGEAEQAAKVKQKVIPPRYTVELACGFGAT

| Binder | binding result |
| --- | --- |
| B1 | binds |
| B2 | binds |
| B3 | binds |

target: T5, rat IL1RAP ECD displayed on HEK-293F cells (pDisplay) (rat, UniProt Q63621 21-367); test: HEK-293F cells (MSD)
T5 sequence: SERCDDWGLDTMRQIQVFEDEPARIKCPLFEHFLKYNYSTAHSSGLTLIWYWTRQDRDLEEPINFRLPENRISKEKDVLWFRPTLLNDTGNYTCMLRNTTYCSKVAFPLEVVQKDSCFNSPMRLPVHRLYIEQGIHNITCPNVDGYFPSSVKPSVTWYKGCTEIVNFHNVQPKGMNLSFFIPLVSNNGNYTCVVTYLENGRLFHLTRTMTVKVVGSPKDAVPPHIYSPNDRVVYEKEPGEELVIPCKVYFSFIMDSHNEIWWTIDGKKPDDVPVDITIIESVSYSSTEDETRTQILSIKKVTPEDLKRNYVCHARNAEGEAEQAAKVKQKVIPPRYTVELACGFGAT

| Binder | binding result |
| --- | --- |
| B1 | binds |
| B2 | binds |
| B3 | binds |

target: T6, human FcRn (human, UniProt P55899 24-297; P61769 21-119, limits assumed); test: AlphaScreen competition, human FcRn (n=1); displaced: biotinylated control mAb B21M WT IgG1 (m27); pH 6.0
T6 construct: GST-tagged
Text: (§1) Measurements were made using an AlphaScreen™ assay (Amplified Luminescent Proximity Homogeneous Assay (ALPHA), PerkinElmer, Wellesley, Mass.), a bead-based luminescent proximity assay. Laser excitation of a donor bead excites oxygen, which if sufficiently close to the acceptor bead generates a cascade of chemiluminescent events, ultimately leading to fluorescence emission at 520-620 nm.

| Binder | IC50 (read off the curve) [nM] |
| --- | --- |
| B5 | ~200 |
| B4 | ~200 |

target: T7, human FcγRIIb (human, UniProt P31994 43-217, limits assumed); test: AlphaScreen competition, human FcγRIIb (n=1); displaced: biotinylated control mAb B21M hIgG1 WT; pH 7.2
T7 construct: GST-tagged
T7 sequence (looked up): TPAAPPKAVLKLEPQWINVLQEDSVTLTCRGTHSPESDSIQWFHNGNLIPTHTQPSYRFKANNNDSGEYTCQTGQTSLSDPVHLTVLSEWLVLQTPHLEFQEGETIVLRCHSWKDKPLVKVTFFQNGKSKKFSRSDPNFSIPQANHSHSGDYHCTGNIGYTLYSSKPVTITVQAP
Text: as §1

| Binder | binding result |
| --- | --- |
| B5 | binds |
| B4 | binds |

target: T8, human FcγRI (human, UniProt P12314 16-292, limits assumed); test: AlphaScreen competition, human FcγRI (n=1); displaced: biotinylated control mAb B21M hIgG1 AlaAla; pH 7.2
T8 construct: GST-tagged, on glutathione acceptor beads; also called FcγRT [sic]
Text: as §1

| Binder | IC50 (read off the curve) [nM] |
| --- | --- |
| B5 | ~60 |
| B4 | ~100 |
